The data set concerns the molecule itself. The data set can be described thus: size exclusion chromatography, Superdex 75, non-denaturing; self-association (dimerization).

B1: Mocr protein (monomeric Ocr, F53R and V77D) as produced from the pMCSG7 vector (pMocr) (other)
chain: MHHHHHHSSGVDLAMSNMTYNNVFDHAYEMLKENIRYDDIRDTDDLHDAIHMAADNAVPHYYADIRSVMASEGIDLEFEDSGLMPDTKDDIRILQARIYEQLTIDLWEDAEDLLNEYLEEVEEYEEDEEGTENLYFQSNICSG
notes: […]; The predicted molecular weight is 16.7 kDa; also called synthetic Mocr
Consider B1, for which the binding result was “no binding”.

The values are drawn from patent publication US20110165624A1 (REGENTS OF THEUNIVERSITY OF MICHIGAN, published 2011).
